Laboratory results reported in publication PMC5748976 (The Journal of Cell Biology, 2018).

What was measured:
[1] = biological target: recombinant His-tagged FAK (focal adhesion kinase) (UniProt Q05397 1-1052); assay: pull-down
[2] = biological target: recombinant His-tagged Pyk2 (proline-rich tyrosine kinase 2) (UniProt Q14289 1-1009); assay: pull-down
Chain of recombinant His-tagged Pyk2 (proline-rich tyrosine kinase 2) (Q14289 whole entry): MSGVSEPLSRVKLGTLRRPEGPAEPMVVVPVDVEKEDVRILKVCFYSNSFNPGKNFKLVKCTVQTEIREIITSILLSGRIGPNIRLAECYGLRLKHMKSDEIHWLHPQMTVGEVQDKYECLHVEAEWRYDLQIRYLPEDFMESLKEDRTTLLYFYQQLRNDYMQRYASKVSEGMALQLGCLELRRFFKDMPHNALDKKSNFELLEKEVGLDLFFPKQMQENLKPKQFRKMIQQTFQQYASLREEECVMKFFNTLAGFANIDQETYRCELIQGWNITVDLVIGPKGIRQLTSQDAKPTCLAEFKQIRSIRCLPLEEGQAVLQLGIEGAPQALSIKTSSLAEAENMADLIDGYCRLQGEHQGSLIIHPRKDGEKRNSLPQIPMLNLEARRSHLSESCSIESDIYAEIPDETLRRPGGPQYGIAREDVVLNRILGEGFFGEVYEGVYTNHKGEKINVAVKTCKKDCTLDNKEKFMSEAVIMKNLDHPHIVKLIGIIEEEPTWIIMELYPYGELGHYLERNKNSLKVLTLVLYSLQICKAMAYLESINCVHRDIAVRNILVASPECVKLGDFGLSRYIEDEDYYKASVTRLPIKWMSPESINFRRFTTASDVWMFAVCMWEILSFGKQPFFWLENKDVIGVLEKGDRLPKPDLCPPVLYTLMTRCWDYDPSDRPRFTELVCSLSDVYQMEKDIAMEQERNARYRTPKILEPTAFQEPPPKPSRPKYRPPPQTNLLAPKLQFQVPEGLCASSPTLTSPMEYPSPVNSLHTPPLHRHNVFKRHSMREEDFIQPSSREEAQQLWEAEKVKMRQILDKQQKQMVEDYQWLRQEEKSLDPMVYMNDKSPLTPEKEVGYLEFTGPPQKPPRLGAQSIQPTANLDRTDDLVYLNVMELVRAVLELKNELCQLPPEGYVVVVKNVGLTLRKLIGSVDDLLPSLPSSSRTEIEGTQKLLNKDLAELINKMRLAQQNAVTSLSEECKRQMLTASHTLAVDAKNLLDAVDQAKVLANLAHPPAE

Chain of recombinant His-tagged FAK (focal adhesion kinase) (Q05397 whole entry): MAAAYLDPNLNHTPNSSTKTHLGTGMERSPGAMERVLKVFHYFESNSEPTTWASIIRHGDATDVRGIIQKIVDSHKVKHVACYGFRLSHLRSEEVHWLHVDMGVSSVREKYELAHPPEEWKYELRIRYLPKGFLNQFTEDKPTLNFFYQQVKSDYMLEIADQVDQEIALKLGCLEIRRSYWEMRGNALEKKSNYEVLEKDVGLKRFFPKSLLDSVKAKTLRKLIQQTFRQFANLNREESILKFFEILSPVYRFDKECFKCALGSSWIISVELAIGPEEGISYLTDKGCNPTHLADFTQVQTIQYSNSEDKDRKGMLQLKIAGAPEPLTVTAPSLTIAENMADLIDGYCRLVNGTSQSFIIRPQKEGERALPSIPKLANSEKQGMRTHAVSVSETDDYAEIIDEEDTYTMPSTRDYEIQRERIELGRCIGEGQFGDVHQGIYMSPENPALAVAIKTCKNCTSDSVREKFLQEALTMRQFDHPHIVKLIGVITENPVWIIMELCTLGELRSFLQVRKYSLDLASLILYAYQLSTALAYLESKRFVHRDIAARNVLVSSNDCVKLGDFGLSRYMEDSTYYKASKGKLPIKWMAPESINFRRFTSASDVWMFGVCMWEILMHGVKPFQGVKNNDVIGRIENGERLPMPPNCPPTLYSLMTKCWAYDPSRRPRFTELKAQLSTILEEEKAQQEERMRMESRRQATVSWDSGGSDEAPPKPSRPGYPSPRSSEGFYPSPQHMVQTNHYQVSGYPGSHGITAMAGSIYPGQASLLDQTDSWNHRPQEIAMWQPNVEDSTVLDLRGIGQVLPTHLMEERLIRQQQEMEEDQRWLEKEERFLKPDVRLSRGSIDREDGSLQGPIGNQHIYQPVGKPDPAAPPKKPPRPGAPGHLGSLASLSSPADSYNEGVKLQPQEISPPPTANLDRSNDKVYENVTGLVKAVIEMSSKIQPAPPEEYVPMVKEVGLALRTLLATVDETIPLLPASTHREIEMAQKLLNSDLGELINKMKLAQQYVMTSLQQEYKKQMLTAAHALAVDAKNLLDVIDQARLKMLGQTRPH

Kd [1]: 2160 ± 683 nM
Kd [2]: 490 ± 138 nM
B1: recombinant His-tagged cortactin (natural protein)
chain: not shown
